Data taken from patent publication US20260001914A1, “MACROCYCLIC PEPTIDES TARGETING KRAS” (Merck Sharp & Dohme LLC, priority 2022, published 2026).
Several values for one entry are separate records, joined by “and”; a condition that tells them apart may be missing. Equal entries are not always repeated. *1 amine or outer side, *2 acyl side, *3 side chain or, on linkers, in order; H or OH if unused. Where a SMILES comes first, the peptide text is derived from it. Bridges are numbered along the chain shown (N, C = ends). Where no end group is shown, it is not given here. [ ]: non-standard residue; d: D form. cBu(1-CO,cis-3-CH2NH) = O=C([C@H]1C[C@@H](CN[*:1])C1)[*:2]; Phe(4-guanidino) = N=C(N)Nc1ccc(C[C@H](N)C(=O)O)cc1; X22 = CNC(=N)N(C)CCC[C@@H](C(=O)[*:2])N(C)[*:1]; Ala(pyrimidin-5-yl) = N[C@@H](Cc1cncnc1)C(=O)O; NMe3Pal(5-F) = CN[C@@H](Cc1cncc(F)c1)C(=O)O; Phe(3-F) = N[C@@H](Cc1cccc(F)c1)C(=O)O; X40 = CC(C)(F)C[C@H](N[*:1])C(=O)[*:2]; Phe(2-F) = N[C@@H](Cc1ccccc1F)C(=O)O; NMe3Pal = CN[C@@H](Cc1cccnc1)C(=O)O; X1 = O=C(C12CC(CN[*:1])(C1)C2)[*:2]; NMeLys(Me) = CNCCCC[C@H](NC)C(=O)O; Ala(cPr) = N[C@@H](CC1CC1)C(=O)O; NMeF = CN[C@@H](Cc1ccccc1)C(=O)O; PhLac = O=C(O)[C@@H](O)Cc1ccccc1; 3Pal = N[C@@H](Cc1cccnc1)C(=O)O; Ahp(2) = CCCCC[C@H](N)C(=O)O; Cba = N[C@@H](CC1CCC1)C(=O)O; hLeu = CC(C)CC[C@H](N)C(=O)O; αMeC = C[C@](N)(CS)C(=O)O; NMeA = CN[C@@H](C)C(=O)O; Nle = CCCC[C@H](N)C(=O)O; Nva = CCC[C@H](N)C(=O)O

B1: cyclo(F-R-Y-L-V-Ahp-NMeF-dC-C1Ac) (peptide)
peptide: {CH2CO}-FRYLV[Ahp(2)][NMeF][dC]
modifications: thioether N-8 (inferred); not fully specified (C-terminus); printed as cyclo(F-R-Y-L-V-Ahp-NMeF-dC-C1Ac)

target: phosphorylation levels of ERK1/2 in AsPC-1 (homozygous KRAS-G12D) cells (Homo sapiens, UniProt P01116, G12D); assay: Cellular phospho-ERK assay in AsPC-1 cells (Alpha Screen), assay medium without fetal bovine serum; type: cell-based; settings: phospho-ERK AlphaScreen, 18 h;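 also: signal taken as phospho-ERK over total ERK per well, both detected in one multiplex bead assay, EC50 from four-parameter logistic fit of dose-response curves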

Molecule | EC50 [nM]
CC(C)CC[C@@H]1NC(=O)[C@H](Cc2cccc(F)c2)NC(=O)[C@H](CC2CCC2)NC(=O)[C@H](Cc2cncnc2)NC(=O)[C@H](C)N(C)C(=O)[C@H](Cc2ccccc2)OC(=O)C23CC(CNC(=O)[C@H](Cc4ccccc4)N(C)C1=O)(C2)C3 [compound 303, cyclo(FLac-NMeA-PyrimAla-cBuA-Phe3F-hL-NMeF-amBCP)] (cyclo([Cba][Phe(3-F)][hLeu][NMeF][X1][PhLac][NMeA][Ala(pyrimidin-5-yl)])) | 806
CCCC[C@@H]1NC(=O)[C@H](Cc2ccc(NC(=N)N)cc2)NC(=O)[C@H](CCCN(C)C(=N)NC)N(C)C(=O)[C@H](Cc2ccccc2)NC(=O)[C@H]2C[C@@H](CNC(=O)[C@H](Cc3ccccc3)N(C)C(=O)[C@H](CCCC)NC(=O)[C@H](Cc3ccc(OC)cc3)NC1=O)C2 [compound 384, cyclo(F-NMeArg1MeMe-Phe4Gn-Nle-TyrOMe-Nle-NMeF-c3amCblc)] (cyclo(F[X22][Phe(4-guanidino)][Nle]Y(Me)[Nle][NMeF][cBu(1-CO,cis-3-CH2NH)])) | > 50800
CC(C)CC[C@@H]1NC(=O)[C@H](Cc2ccccc2F)NC(=O)[C@H](CC2CC2)NC(=O)[C@H](Cc2cncnc2)NC(=O)[C@H](C)N(C)C(=O)[C@H](Cc2ccccc2)OC(=O)C23CC(CNC(=O)[C@H](Cc4cncc(F)c4)N(C)C1=O)(C2)C3 [compound 282, cyclo(FLac-NMeA-PyrimAla-cPrA-Phe2F-hL-NMe3Pal5F-amBCP)] (cyclo([Ala(cPr)][Phe(2-F)][hLeu][NMe3Pal(5-F)][X1][PhLac][NMeA][Ala(pyrimidin-5-yl)])) | 2490
CCCC[C@@H]1NC(=O)[C@H](Cc2cccnc2)NC(=O)[C@H](C)N(C)C(=O)[C@H](Cc2ccccc2)OC(=O)C23CC(CNC(=O)[C@H](Cc4cccnc4)N(C)C(=O)[C@H](CCC)NC(=O)[C@H](Cc4ccccc4F)NC1=O)(C2)C3 [compound 116, cyclo(FLac-NMeA-3Pal-Nle-Phe2F-Nva-NMe3Pal-amBCP)] (cyclo([3Pal][Nle][Phe(2-F)][Nva][NMe3Pal][X1][PhLac][NMeA])) | > 50800
CC(C)CC[C@@H]1NC(=O)[C@H](Cc2ccccc2F)NC(=O)[C@H](CC(C)(C)F)NC(=O)[C@H](Cc2cncnc2)NC(=O)[C@H](C)N(C)C(=O)[C@H](Cc2ccccc2)OC(=O)C23CC(CNC(=O)[C@H](Cc4ccccc4)N(C)C1=O)(C2)C3 [compound 136, cyclo(FLac-NMeA-PyrimAla-Leu3F-Phe2F-hL-NMeF-amBCP)] (cyclo([NMeA][Ala(pyrimidin-5-yl)][X40][Phe(2-F)][hLeu][NMeF][X1][PhLac])) | 7730
CCCCC[C@@H]1NC(=O)[C@H](Cc2ccc(OC)cc2)NC(=O)[C@H](CC2CCC2)NC(=O)[C@H](Cc2ccc(NC(=N)N)cc2)NC(=O)[C@H](CCCCNC)N(C)C(=O)[C@H](Cc2ccccc2)NC(=O)CSC[C@@](C)(C(N)=O)NC(=O)[C@H](Cc2ccccc2)N(C)C1=O [compound 360, cyclo(F-NMeLysMe-Phe4Gn-cBuA-TyrOMe-Ahp-NMeF-aMeCl-ClAc)] ({CH2CO}-F[NMeLys(Me)][Phe(4-guanidino)][Cba]Y(Me)[Ahp(2)][NMeF][αMeC]-NH2; thioether N-8) | > 50800

target: Biotin-labeled KRAS-G12D protein (UniProt P01116-2 1-169, limits assumed, biotin label (site not stated); loaded with BODIPY-GDP); assay: cell-based or functional assay; settings: not given

Molecule | SOS assay EC50
cyclo(Phe4F-R-4Pal-hIle-TyrOMe-Nva-NMeF-dC-C1Ac) (peptide) | 2060 nM
cyclo(F-R-3Pal-cBuA-Phe2F-Nle-NMeF-aMeC1-C1Ac) (peptide) | 2 nM
cyclo(NMeF-NMeDabN3-3Pal-Nle-Phe2F-Nle-NMe3Pal-c3amCblc) (peptide) | 8470 nM
cyclo(Phe4F-R-4Pal-L-TyrOMe-Nva-NMeF-dC1-C1Ac) (peptide) | 1170 nM
cyclo(F-Nva-Phe4Gn-L-TyrOMe-Nle-NMeF-dC1-C1Ac) (peptide) | 4320 nM
cyclo(F-R-3Pal-cBuA-TyrOMe-AheNMeHag-aMeC-C1Ac) peak 2 (peptide) | 650 nM
cyclo(NMeF-NMeNvalmid-3Pal-dNle-Phe2F-Nle-NMe3Pal-c3amCblc) (peptide) | 1460 nM
cyclo(Phe34F2-R-4Pal-L-TyrOMe-Nva-NMeF-dC1-C1Ac) (peptide) | 2770 nM
cyclo(NMeF-NMeNvaImid-Phe4cPyrr-Nle-Phe2F-Nle-NMe3Pal-amBCP) (peptide) | 3220 nM
cyclo(F-R-Phe4Gn-Nle-TyrOMe-Nle-NMeF-acBu) (peptide) | 13.8 nM
cyclo(F-R-Phe4Gn-Nle-TyrOMe-Nle-NMeF-SamHex) (peptide) | 142 nM
cyclo(F-IPG-d3Pal-cBuA-Phe2F-Nle-NMe3Pal-amBCP) (peptide) | 1230 nM
cyclo(F-R-3Pal-Nle-TyrOMe-Nle-NMeF-dbhcLeu) (peptide) | 949 nM
cyclo(F-R-3Pal-cBuA~TyrOMe-Nle-NMeF-spiro54) (peptide) | 656 nM
cyclo(F-R-3Pal-Nle-TyrOMe-Nle-NMeF-bhcLeu) (peptide) | 193 nM
cyclo(F-R-d3Pal-cBuA-Phe2F-Nle-NMe3Pal-amBCP) (peptide) | 3.19 nM
cyclo(Phe4F-R-4Pal-L-TyrOMe-Nva-NMeF-Cysteamine-C1Ac) (peptide) | 3010 nM
cyclo(NMeF-NMeNvalmid-3Pal-Nle-Phe2F-LysN3-NMe3Pal-c3amCb1c) (peptide) | 7760 nM
cyclo(F-NMeNvalmid-3Pal-Nle-Phe2F-Nle-NMe3Pal-tamcPr) (peptide) | 272 nM
cyclo(F-NMeR-d3Pal-NMeNle-Phe2F-Nle-NMe3Pal-amBCP) (peptide) | 1200 nM
cyclo(F-R~3Pal-cBuA-Phe26F2-Nle-NMe3Pal-aMeC1-C1Ac) (peptide) | 4.6 nM
cyclo(FLac-NMeA~PyrimAla-cPrA-3Pal6F-hL-NMeF-amBCP) (peptide) | 3.72 nM
cyclo(F-R-3Pal-Nle-SerOMe-Nle-NMe3Pal-aMeC1-C1Ac) (peptide) | 6390 nM
cyclo(F-R-3Pal-cBuA-SerOMe-Nle-NMeF-aMeC1-C1Ac) (peptide) | 943 nM
cyclo(F-MorNva-3Pal-cBuA-Phe2F-Nle-NMe3Pal-amBCP) (peptide) | 432 nM
cyclo(F-R-3Pal-cBuA-TyrOMe-Nle-NMeF-amBCP) (peptide) | 5.47 nM
cyclo(Phe4F-R-4Pal-Nle-TyrOMe-Nle-NMeF-Cysteamine-C1Ac) (peptide) | 432 nM
cyclo(F-R-PyrimAla-cBuA-Phe2F-Nle-NMe3Pal-aMeC1-C1Ac) (peptide) | 0.998 nM

Molecule | SOS assay EC50
cyclo(F-R-3Pal-cBuA-AbuF3-Nle-NMeF-aMeC1-C1Ac) (peptide) | 861 nM
cyclo(F-R-3Pal-cBuA-TyrOMe-AheNMeHag-aMeC-C1Ac) peak 1 (peptide) | 1560 nM and 324 nM
cyclo(F-R-3Pal-cBuA-Pra-Nle-NMeF-aMeC1-C1Ac) (peptide) | 298 nM
cyclo(F-R-4F3Pal-cBuA-Phe2F-Nle-NMe3Pal-daMeC1-C1Ac) (peptide) | 1.26 nM
cyclo(1Nal-R~Phe4Gn-Nle-Y-Nle-NMeF-daMeC-C1Ac) (peptide) | 575 nM
cyclo(F-R-3Pal-Nle-all-Nle-NMe3Pal-aMeC1-C1Ac (peptide) | 946 nM
cyclo(Phe4F-R-4Pal-L-TyrOMe-Nva-NMeF-dC5-C1Ac) (peptide) | 70.2 nM
cyclo(F-DabN3-3Pal-Nle-Phe2F-Nle-NMe3Pal-c3amCb1c) (peptide) | 830 nM
cyclo(F-R-3Pal-Nle-deHLeu-Nle-NMe3Pal-aMeC1-C1Ac) (peptide) | 526 nM
cyclo(F-R-3Pal-Nle-Phe2F-Nle-NMe3Pal-aMeC-C1Ac) (peptide) | 370 nM
cyclo(F-NMeR-3Pal-Nle-TyrOMe-Nle-NMeF-c3amCblc) (peptide) | 96.2 nM
cyclo(Phe4F-R-LysN3-Nle-Y-Nle-NMeF-Cysteamine-C1Ac) (peptide) | 3530 nM
cyclo(Phe3F-R-4Pal-L-TyrOMe-Nva-NMeF-dC1-C1Ac) (peptide) | 3750 nM
cyclo(F-R-3Pal-cBuA-Phe24F2-Nle-NMe3Pal-aMeC1-C1Ac) (peptide) | 1.35 nM
cyclo(F-R-4CF33Pal-cBuA-Phe2F-Nle-NMe3Pal-aMeC1-C1Ac) (peptide) | 1.59 nM
cyclo(F-baceNva-d3Pal-cBuA-Phe2F-Nle-NMe3Pal-amBCP) (peptide) | 7.56 nM
cyclo(F-R-d3Pal-cBuA-Phe2F-Nle-NMe3Pal-amBYA) (peptide) | 387 nM
cyclo(F-R-Phe4cPyrr-Nle-TyrOMe-Nle-NMeF-c3amCblc) (peptide) | 35.3 nM
cyclo(NMeF-NMeNvalmid-3Pal-Nle-Phe2F-Nle-NMe3Pal-c3amCblc) (peptide) | 1220 nM
cyclo(F-R-d3Pal-cBuA-TyrOMe-Nle-NMeF-Smcysteamine-C1Ac) (peptide) | 37.8 nM
cyclo(F-R-d3Pal-cBuA-Phe2F-Nle-NMe3Pal-amOBCH) (peptide) | 6820 nM
cyclo(F-R-3Pal-cBuA-TyrOMe-HagNMeHag-daMeC-C1Ac) (peptide) | 238 nM
cyclo(dF-R-3Pal-Nie-TyrOMe-Nle-NMeF-c3amCblc) (peptide) | 222 nM
cyclo(INal-R-4Pal-L-TyrOMe-Nva-NMeF-dC1-C1Ac) (peptide) | 935 nM
cyclo(F-6Quin4NH2-Phe4Gn-L-TyrOMe-Nle-NMeF-C1-C1Ac) (peptide) | 7790 nM
cyclo(F-NMeNvalmid-3Pal-Nle-Phe2F-LysN3-NMe3Pal-c3amCblc) (peptide) | 612 nM
B1 | 7140 nM
